Measured values from publication PMC3875647 (Worm, 2013).

Molecular target: the molecule itself
Assay: SEC-MALS

B1: MBP-AA-SAS-5 aa82-260 (domain or fragment, C. elegans, UniProt Q20010 82-260, looked up)
chain: HPALRQKTVAFGKTVNVSQTVEGTSRNSKKVLASTMSAQNTTTTEEQAAENWRDAMKTELQTIRTEIQEETARRQEELNAQNLVKMQELMSNFFQKITIPKQQAIEPVEKDKENFHESPRQSRQQKPASKIASAREVIKRDGVIPPEALTIIEQRLRSDPMFRQQIDNVLADAECDANR
- stoichiometry N: 4

B2: MBP-AA-SAS5-NTD (SAS-5 residues 1–260 fused to MBP with a two-alanine linker) (domain or fragment, C. elegans, UniProt Q20010 1-260, looked up)
chain: MNNYDDLPCSIYFKKPTVQEFVDQPRVFEDSEVPAFQEVLQLPQERTKPPVPSTQPIVAAVEVAKKKSCLSAPKPRKEPPSHPALRQKTVAFGKTVNVSQTVEGTSRNSKKVLASTMSAQNTTTTEEQAAENWRDAMKTELQTIRTEIQEETARRQEELNAQNLVKMQELMSNFFQKITIPKQQAIEPVEKDKENFHESPRQSRQQKPASKIASAREVIKRDGVIPPEALTIIEQRLRSDPMFRQQIDNVLADAECDANR
- stoichiometry N: 4
